Assay results: publication PMC3217859, “Protein phosphatase 2a (PP2A) binds within the oligomerization domain of striatin and regulates the phosphorylation and activation of the mammalian Ste20-Like kinase Mst3” (BMC Biochemistry, 2011)

How the values were obtained:
[1] = molecular target: T1, HA-tagged K270Stop striatin (human, UniProt O43815 1-269); test: co-IP; anti-HA immunoprecipitates (12CA5 with protein A-Sepharose, or F7 anti-HA-agarose when probing for Mst3 or Mst4; 1.5 h, 4°C) of lysates (1% Nonidet P-40, 0.135 M NaCl, 10% glycerol, 20 mM Tris pH 8.0) of HEK293 cells transfected with HA-striatins; endogenous partners by immunoblot, partner/HA-striatin ratio by chemilumimager against wild type; 50 mM NaF and 100 nM okadaic acid in the lysis buffer in the …; conditions: partners not purified
T1 construct: striatin, human, C-terminal truncation by a stop codon at K270; source: HEK293, transfected, in lysate; not shown: HA, N-terminal, kept
T1 sequence (looked up): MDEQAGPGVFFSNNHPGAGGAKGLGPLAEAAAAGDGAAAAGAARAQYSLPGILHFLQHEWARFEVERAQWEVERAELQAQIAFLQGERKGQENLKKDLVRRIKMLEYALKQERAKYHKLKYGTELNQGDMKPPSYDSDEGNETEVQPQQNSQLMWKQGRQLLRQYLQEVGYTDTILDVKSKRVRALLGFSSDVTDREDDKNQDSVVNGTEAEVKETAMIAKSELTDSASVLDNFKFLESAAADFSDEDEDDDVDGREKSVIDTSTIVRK

[2] = molecular target: T2, HA-tagged Δ(3-309) striatin (human, UniProt O43815 1-780, Δ(3-309)); test: as above; conditions: partners not purified
T2 construct: source: HEK293, transfected, in lysate; not shown: HA, N-terminal, kept
T2 sequence (looked up): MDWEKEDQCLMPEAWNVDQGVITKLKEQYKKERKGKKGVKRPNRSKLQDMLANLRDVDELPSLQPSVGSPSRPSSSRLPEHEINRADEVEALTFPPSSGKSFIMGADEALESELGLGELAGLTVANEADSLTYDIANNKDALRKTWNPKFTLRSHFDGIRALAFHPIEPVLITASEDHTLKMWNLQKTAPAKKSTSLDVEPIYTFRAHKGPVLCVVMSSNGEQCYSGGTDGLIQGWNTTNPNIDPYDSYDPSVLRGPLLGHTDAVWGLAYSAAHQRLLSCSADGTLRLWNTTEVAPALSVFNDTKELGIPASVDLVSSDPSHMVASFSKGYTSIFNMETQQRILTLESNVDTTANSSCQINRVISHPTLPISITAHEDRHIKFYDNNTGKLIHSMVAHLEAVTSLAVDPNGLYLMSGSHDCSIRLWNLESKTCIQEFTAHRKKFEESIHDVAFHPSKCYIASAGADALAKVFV

percent reduction in binding against wild-type striatin [1]: 45%
percent of the wild-type level bound [2]: ~40 % of wild-type level
B1: Mob3/phocein (natural protein, human (endogenous in HEK293), UniProt Q9Y3A3 1-225, looked up)
chain: MVMAEGTAVLRRNRPGTKAQDFYNWPDESFDEMDSTLAVQQYIQQNIRADCSNIDKILEPPEGQDEGVWKYEHLRQFCLELNGLAVKLQSECHPDTCTQMTATEQWIFLCAAHKTPKECPAIDYTRHTLDGAACLLNSNKYFPSRVSIKESSVAKLGSVCRRIYRIFSHAYFHHRQIFDEYENETFLCHRFTKFVMKYNLMSKDNLIVPILEEEVQNSVSGESEA
notes: source: endogenous, HEK293 lysate
